We go through 4 molecules from paper PMC6615864, “Genetic interactions of G-quadruplexes in humans”.

Data set [1] addresses T1, DDX42 (Homo sapiens, UniProt Q86XP3 1-938).
T1 sequence: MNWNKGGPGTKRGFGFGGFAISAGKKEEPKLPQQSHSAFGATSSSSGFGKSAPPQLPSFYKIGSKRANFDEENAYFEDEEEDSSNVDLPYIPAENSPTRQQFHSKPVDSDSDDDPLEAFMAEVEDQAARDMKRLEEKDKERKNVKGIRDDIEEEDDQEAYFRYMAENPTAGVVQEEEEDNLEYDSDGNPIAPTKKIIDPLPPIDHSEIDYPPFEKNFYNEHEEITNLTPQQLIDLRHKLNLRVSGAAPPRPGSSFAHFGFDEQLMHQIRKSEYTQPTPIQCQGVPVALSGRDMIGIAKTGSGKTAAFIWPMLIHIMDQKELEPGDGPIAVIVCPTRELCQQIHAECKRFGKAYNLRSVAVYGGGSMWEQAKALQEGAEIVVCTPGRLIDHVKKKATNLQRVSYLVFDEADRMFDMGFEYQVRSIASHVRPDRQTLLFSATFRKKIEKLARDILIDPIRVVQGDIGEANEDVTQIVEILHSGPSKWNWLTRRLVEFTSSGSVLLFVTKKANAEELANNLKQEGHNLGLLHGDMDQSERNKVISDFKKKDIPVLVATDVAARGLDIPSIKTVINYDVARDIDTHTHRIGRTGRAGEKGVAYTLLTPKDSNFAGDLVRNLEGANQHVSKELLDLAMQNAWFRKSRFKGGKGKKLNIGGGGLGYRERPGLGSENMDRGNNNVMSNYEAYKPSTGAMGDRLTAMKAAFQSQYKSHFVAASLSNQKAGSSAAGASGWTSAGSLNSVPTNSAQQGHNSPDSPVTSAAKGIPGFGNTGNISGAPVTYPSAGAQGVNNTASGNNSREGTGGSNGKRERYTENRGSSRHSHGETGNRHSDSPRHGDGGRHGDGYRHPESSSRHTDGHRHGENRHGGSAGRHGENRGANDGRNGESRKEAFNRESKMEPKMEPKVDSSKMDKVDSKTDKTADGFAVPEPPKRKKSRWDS
As to the kind of experiment: ELISA; 100 mM KCl; apparent Kd; ELISA: 50 mM K2HPO4 pH 7.4, 100 mM KCl (or 100 mM LiCl), 3% BSA block, 0.1% Tween-20 washes; blocking at room temperature, DDX42 1 h; 50 nM biotin-oligo coating; oligos annealed in 10 mM Tris-HCl pH 7.4, 100 mM KCl. Conditions: protein: commercial; tags: N-terminal GST; label: 5' biotin; parallel G4 (CD verified).

Data set [2] has as its target T1, DDX42. As to the kind of experiment: ELISA; not detectable up to 200 nM DDX42; ELISA: 50 mM K2HPO4 pH 7.4, 100 mM KCl (or 100 mM LiCl), 3% BSA block, 0.1% Tween-20 washes; blocking at room temperature, DDX42 1 h; 50 nM biotin-oligo coating; oligos annealed in 10 mM Tris-HCl pH 7.4, 100 mM KCl. To be noted: protein: commercial, tags: N-terminal GST, label: 5' biotin.

The target of data set [3] is T1, DDX42. Description: ELISA; 100 mM KCl; apparent Kd, above the 200 nM top concentration; ELISA: 50 mM K2HPO4 pH 7.4, 100 mM KCl (or 100 mM LiCl), 3% BSA block, 0.1% Tween-20 washes; blocking at room temperature, DDX42 1 h; 50 nM biotin-oligo coating; oligos annealed in 10 mM Tris-HCl pH 7.4, 100 mM KCl. Conditions: protein: commercial; tags: N-terminal GST; label: 5' biotin; parallel G4 (CD verified).

UGUGGGAGGGGCGGGUCUGGGUGC (structured_RNA) [NRAS G4 (rG4)]: the Kd with DDX42 [1] was found to be 71.1 ± 3.5 nM.
Regarding ACAGGGCUCCGCGAUGGCGGAGCCCAA (structured_RNA) [Stem loop (RNA hairpin)], the binding result with DDX42 [2] (hairpin) is “no binding”.
As for TGAGGGTGGGTAGGGTGGGTAA (structured_DNA) [Myc G4 (dG4)], in the data set with DDX42 [3], the Kd was found to be 233 ± 23.5 nM.
Turning to UGUAGAAAGAGCAGAUCUAGAUG (ssRNA) [NRAS mut (rG4 mut)], the binding result with DDX42 [2] (no G4) is “no binding”.
